Laboratory results reported in article PMC8688474 (Nature Communications, 2021).

Target: T1, WT SARS-CoV-2 RBD protein (SARS-CoV-2, Wuhan-Hu-1 (WT), UniProt P0DTC2)
T1 construct: also called WT RBD
Assay: ELISA
Details: both partners purified

B1: neutralizing MAb 3C1 (antibody, V domains shown)
VH: EVQLQESGPSLVKPSQTLSLTCSVTGDSITNGYWNWIRKFPGNKLEYMGYISYSGSTYYSPSLKSRISITRDTSKNQHYLQLNSVTSEDTATYYCASDYHGSKYYFDYWGQGTTLTVSS
VL: DIVMTQSHKFMSTSVGHRVSITCKASQDVGNDVAWYQQKPGQSPKLLIYWASTRHTGVPDRFTGSGSGTDFTLTISNVQSEDLADYFCQQYNRYPYTFGGGTKLEIK
B1: binds.

B2: neutralizing MAb 2H2 (antibody, V domains shown)
VH: QVQLKQSGPSLVQPSQSLSITCTVSGFSLTSYGVHWVRQSPGKGLEWLGVMWRGGNTDYNAAFMSRLSITKDNSKSQVFFKMNSLQTDDTAIYYCAKNGGAHAMDFWGQGTSVTVSS
VL: NIVLTQSPASLAVSLGQRATISCRASESVDSYGNSFLHWYQQKPGQPPKLLIYLASNLESGVPARFSGSGSRTDFTLTIDPVEADDAATYYCQQNNEDPFTFGSGTKLEIK
B2: binds.
